The values that follow come from article PMC8569552, “Basolateral protein Scribble binds phosphatase PP1 to establish a signaling network maintaining apicobasal polarity” (The Journal of Biological Chemistry, 2021).

This series deals with the molecule itself. The experiment in a line: native gel or EMSA; BN-PAGE (Native-PAGE Novex Bis-Tris) of 1% Triton X-100 lysates of DLD20-2 cells expressing the tagged protein, no cross-linking; blot probed for GFP. (In EMSA bound probe runs differently from free probe, usually more slowly.)

B1: sLUR-517GFP (domain or fragment, human, UniProt Q14160 1-517, looked up)
chain: MLKCIPLWRCNRHVESVDKRHCSLQAVPEEIYRYSRSLEELLLDANQLRELPKPFFRLLNLRKLGLSDNEIQRLPPEVANFMQLVELDVSRNDIPEIPESIKFCKALEIADFSGNPLSRLPDGFTQLRSLAHLALNDVSLQALPGDVGNLANLVTLELRENLLKSLPASLSFLVKLEQLDLGGNDLEVLPDTLGALPNLRELWLDRNQLSALPPELGNLRRLVCLDVSENRLEELPAELGGLVLLTDLLLSQNLLRRLPDGIGQLKQLSILKVDQNRLCEVTEAIGDCENLSELILTENLLMALPRSLGKLTKLTNLNVDRNHLEALPPEIGGCVALSVLSLRDNRLAVLPPELAHTTELHVLDVAGNRLQSLPFALTHLNLKALWLAENQAQPMLRFQTEDDARTGEKVLTCYLLPQQPPPSLEDAGQQGSLSETWSDAPPSRVSVIQFLEAPIGDEDAEEAAAEKRGLQRRATPHPSELKVMKRSIEGRRSEACPCQPDSGSPLPAEEEKRLSAE
notes: Scribble, LAP unique region (sLUR): LRR domain of 17 LRRs, LAPSDa and LAPSDb; the discussion calls the tag mGFP; also called full-length sLUR; source: DLD20-2 cells (LAP protein-deficient DLD1), transfected clones, in lysate
By stoichiometry N is commonly meant the number of molecules, sites or subunits per partner or assembly. For the protein B1, the “stoichiometry N” value is 2.
